How the values were obtained:
Sle_13190 = molecular target: T1, Sle_13190 (Streptomyces leeuwenhoekii, UniProt A0A0F7VUW7); experiment: UV-vis spectrum of purified flavoprotein; FAD quantified after SDS unfolding; format: binding; details: co-purified FAD
T1 construct: full-length, fused to N-terminal His-tagged phosphite dehydrogenase (PTDH) in pCRE2, fusion kept; expressed in E. coli NEB 10-beta; FAD flavoprotein

Sle_62070 = molecular target: T2, Sle_62070 (Streptomyces leeuwenhoekii, UniProt A0A0F7W6X7); experiment: as above; format: binding; details: co-purified FAD
T2 construct: full-length, fused to N-terminal His-tagged phosphite dehydrogenase (PTDH) in pCRE2, fusion kept; expressed in E. coli NEB 10-beta; FAD flavoprotein

purified protein [1] = substrate: CC(=O)Cc1ccccc1; experiment: purified protein; details: 150 uM NADPH, 10 uM FAD, 50 mM Tris-HCl pH 8.0, 10% glycerol, 100 mM NaCl, 2.5% 1,4-dioxane, 25 C
purified protein [2] = substrate: O=C1CC2C=CCC12; experiment: purified protein; format: biochemical, Streptomyces leeuwenhoekii; details: 150 uM NADPH, 10 uM FAD, 50 mM Tris-HCl pH 8.0, 10% glycerol, 100 mM NaCl, 2.5% 1,4-dioxane, 25 C
purified protein [3] = substrate: O=C1CCC(c2ccccc2)CC1; experiment: purified protein; format: biochemical, Streptomyces leeuwenhoekii; details: 150 uM NADPH, 10 uM FAD, 50 mM Tris-HCl pH 8.0, 10% glycerol, 100 mM NaCl, 2.5% 1,4-dioxane, 25 C
purified protein [4] = substrate: O=C1CCCCC1c1ccccc1; experiment: purified protein; format: biochemical, Streptomyces leeuwenhoekii; details: 150 uM NADPH, 10 uM FAD, 50 mM Tris-HCl pH 8.0, 10% glycerol, 100 mM NaCl, 2.5% 1,4-dioxane, 25 C

Row | Molecule | UV-vis spectrum of purified flavoprotein; FAD quantified after SDS unfolding (Sle_13190) | UV-vis spectrum of purified flavoprotein; FAD quantified after SDS unfolding (Sle_62070) | Km (purified protein [1]) | kcat (purified protein [1]) | kcat/Km (purified protein [1]) | Km (purified protein [2]) | kcat (purified protein [2]) | kcat/Km (purified protein [2]) | kcat (purified protein [3]) | kcat/Km (purified protein [3]) | kcat (purified protein [4]) | kcat/Km (purified protein [4])
1 | Cc1cc2nc3c(=O)[nH]c(=O)nc-3n(C[C@H](O)[C@H](O)[C@H](O)COP(=O)(O)OP(=O)(O)OC[C@H]3O[C@@H](n4cnc5c(N)ncnc54)[C@H](O)[C@@H]3O)c2cc1C [FAD] | a clear yellow color was indicative of proper folding and FAD binding | a clear yellow color was indicative of proper folding and FAD binding | – | – | – | – | – | – | – | – | – | –
2 | Sle_62070 (Streptomyces leeuwenhoekii) (protein, full-length, fused to N-terminal His-tagged phosphite dehydrogenase (PTDH) in pCRE2, fusion kept; expressed in E. coli NEB 10-beta; FAD flavoprotein) MTQGQTLSPEELAGLRERYRLERERRVRPDGTRQYLAADAEFGYYAEDPYAGEPPEREPLRDRVDVAVVGGGFGGILAGARLRRRGVRRVRVIEKGGDFGGTWYWNRYPGIHCDIESHVYLPLLDETGYVPEWKYAPGEEIRRHAVRIAEKFDLYADAQFSTAVTSLTWDEETRAWVVATDRGDEFRATYVITATGTLSELKLPGIPGIETFEGHTFHTSRWDYAYTGGTPDGGLTGLADKRVGVVGTGATGIQVIPKLAEDAGHLYVFQRTPSSVDVRANRRTTPQDVGADRDGWARERRDNFLRIVSGETAEEDLVADQWTASAGLLEKLVPSFRRQGDRTAFEAAYEVADAAKMNEIRARVERIVTDRDTAEKLKPWYRYACKRPTFSDTYLQAFNRDNVTLVDTADTHGIERMTERGVVVGGTEYALDCLIFATGFSVGVSGVHSGRLPVRGRGGVQLLDAWRKEGPRTLHGFTSNGFPNLIQMGTVQNASSVNYTHVLDEQAVHAAALVAAAEAKGAVIEPSREAEDAWIAVLAEDAPDHEWFHAECTPGYYNAEGRGRAKGPTAYPHGASAFHELLRRWREESMDGILRAGTPVRGPGGSTVS | – | – | 3.0 ± 0.3 mM | 4.1 s⁻¹ | 1300 M⁻¹ s⁻¹ | 0.20 ± 0.01 mM | 4 ± 0.06 s⁻¹ | 20000 M⁻¹ s⁻¹ | > 4 s⁻¹ | 1300 M⁻¹ s⁻¹ | > 4 s⁻¹ | 1300 M⁻¹ s⁻¹

— publication PMC6058054, “Mining the Genome of Streptomyces leeuwenhoekii: Two New Type I Baeyer–Villiger Monooxygenases From Atacama Desert” (Frontiers in Microbiology, 2018)
